Data taken from publication PMC8990217, “DUX4 is a multifunctional factor priming human embryonic genome activation” (iScience, 2022).

Experiments:
[1] = target: T1, human KIX domain of CBP (residues 587-673) with 36 extra N-terminal residues (human, UniProt Q92793 587-673, RED-tris-NTA dye bound non-covalently to the His tag); experiment: MST; His-tagged KIX labelled with RED-tris-NTA, 20 nM; peptide varied; PBS-Tween (pH 7.4; 0.05% v/v Tween 20); Monolith NT; details: both partners purified
T1 construct: synthetic codon-optimised gene in pET100/TOPO; construct 14.5 kDa; no cleavage is described; also called His-tagged KIX domain; source: E. coli BL21 DE3, purified (Histrap HP, Resource Q, Superdex 75); not shown: His6, N-terminal, kept

[2] = target: T1, human KIX domain of CBP (residues …); experiment: MST; as a1, KBM peptide binding to labelled KIX in the presence of the 9aaTAD peptide (its concentration not told); details: both partners purified

T1 sequence (Q92793 587-673): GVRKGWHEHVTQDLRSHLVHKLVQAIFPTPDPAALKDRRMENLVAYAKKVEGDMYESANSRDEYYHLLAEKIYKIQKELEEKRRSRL

| Binder | Kd [1] | Kd [2] |
| --- | --- | --- |
| CGLLLDELLASPEFLQQ (source: synthetic peptide, bought: GenScript) [DUX4 9aaTAD peptide for binding analysis] | ~200 nM |  |
| EEEYRALLEE (source: synthetic peptide, bought: GenScript) [DUX4 KBM peptide for binding analysis] | ~600 nM | ~1100 nM |
